# Data: the supplement of paper PMC7125110
# ± gives the standard error. Fewer inactive variants are shown than the library holds.
# B1: glmS ribozyme (parent)
# chain: AUAAAAGCGCCAGAACUACAGAAAUGUAGUUGACGAGGAGGAGGUUUAUCGAAUUUUCGGCGGAUGCCUCCAAA
# Tests used:
# Details in all cases: with glucosamine-6-phosphate
# glucosamine-6-phosphate [1] = variants of: B1; assay: self-cleavage kobs at 640 uM GlcN6P; higher = faster cleavage; RNA array
# In short: (§1)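 kobs was derived by fitting per-tile medians to one- or two-exponential decays after normalising signals to baseline and to non-cleaving reference variants. Those signals came from barcoded ribozyme variants transcribed in situ by E. coli RNA polymerase on sequenced MiSeq chips, followed through a hybridised Cy3 probe at 37 °C and imaged over ~14 h. Glucosamine-6-phosphate (40 μM to 10 mM) in HEPES/KCl/Mg(OAc)2 buffer was flowed in. Weighted Michaelis–Menten fits across concentrations then gave kcat and KM.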
# glucosamine-6-phosphate [2] = variants of: B1; assay: self-cleavage kobs at 2500 uM GlcN6P; higher = faster cleavage; RNA array
# In short: as §1
# glucosamine-6-phosphate [3] = variants of: B1; assay: self-cleavage kobs at 10000 uM GlcN6P; higher = faster cleavage; RNA array
# In short: as §1
Variant,self-cleavage kobs at 640 uM GlcN6P (glucosamine-6-phosphate [1]) [s⁻¹],self-cleavage kobs at 2500 uM GlcN6P (glucosamine-6-phosphate [2]) [s⁻¹],self-cleavage kobs at 10000 uM GlcN6P (glucosamine-6-phosphate [3]) [s⁻¹]
A15C U54C G66U C70U,7.59e-05 ± 1.8e-05,0.000351 ± 9.2e-05,–
A14C G40U C67U,< 1e-05,–,–
C11U G37A U57G G63A,< 1e-05,–,–
C11U G38C C50U A52C,< 1e-05,–,–
G13C A48C C68G,< 1e-05,–,–
G13A A39U U55C,4.33e-05 ± 1.4e-05,0.000128 ± 2.9e-05,–
C11A U55G C61G G62C,< 1e-05,–,–
C11A G37A C50U G59A C67U U69G,6.37e-05 ± 2.7e-05,–,–
G13C C16U A36G U69C,< 1e-05,–,–
G13U G29A U31A G37C,< 1e-05,–,–
C11G A12U G41U A53G C67G,< 1e-05,–,–
A14U G37A A52U G60U,< 1e-05,–,–
G13U U55G U56C,7.76e-05 ± 2.4e-05,0.000112 ± 2.5e-05,–
C11G U55G G59C,0.00067 ± 0.00021,–,–
A14G G35U,< 1e-05,< 1e-05,–
G13C G37C U45G,< 1e-05,< 1e-05,–
G13U C34G U45C U47A,< 1e-05,< 1e-05,–
G13U U31A U45G A48C,< 1e-05,< 1e-05,–
C11A C67U C71G,0.000295 ± 9e-05,0.00108 ± 0.00018,4.96e-05 ± 1.3e-05
A15C G38U C58A,< 1e-05,–,–
A12C C67A C68A,7.04e-05 ± 1.6e-05,4.41e-05 ± 2.1e-05,–
A12U C50U,4.86e-05 ± 1.1e-05,9.52e-05 ± 1.7e-05,0.00036 ± 4.5e-05

Variant,self-cleavage kobs at 640 uM GlcN6P (glucosamine-6-phosphate [1]) [s⁻¹],self-cleavage kobs at 2500 uM GlcN6P (glucosamine-6-phosphate [2]) [s⁻¹],self-cleavage kobs at 10000 uM GlcN6P (glucosamine-6-phosphate [3]) [s⁻¹]
C11U C61G C67A,0.000183 ± 5.6e-05,0.000446 ± 0.00017,–
G13U G32A A36G G38U,< 1e-05,–,–
A15C G29U U55A,0.000758 ± 0.0002,–,–
A14C G38U G44U C68G,< 1e-05,< 1e-05,–
A12G C16U U49A,< 1e-05,–,–
A12C U30C A39U,0.000221 ± 4.3e-05,0.000452 ± 0.00012,–
A14G C58G C71A,0.000191 ± 5.2e-05,9.06e-05 ± 1.5e-05,–
G13C A14C G32U U69C,8.31e-05 ± 2.1e-05,7.03e-05 ± 2e-05,–
C11U G41C C67U,< 1e-05,–,–
A14G U47A G66C,0.000364 ± 0.00011,0.00101 ± 0.00023,0.00125 ± 0.00022
C10U G37C G60A,< 1e-05,–,–
A12G G37U A48G,< 1e-05,< 1e-05,–
C11U U57G G63A,< 1e-05,< 1e-05,–
G13A C16A C68G,7.67e-05 ± 3.7e-05,–,–
A14U C68G,6.11e-05 ± 1.7e-05,3.41e-05 ± 1.3e-05,–
A12C A48C G60C G62C C68A,< 1e-05,–,–
A12C U65G C67U,0.000474 ± 0.00016,–,0.00133 ± 0.00031
G13U U30G G35C,< 1e-05,< 1e-05,< 1e-05
A12G A36G G40A U54G,< 1e-05,–,–
A14G A36U C68A,< 1e-05,0.00425 ± 0.0019,–
A12G G43C G51U G63A U65C C68A,< 1e-05,< 1e-05,–
C11U A12G C34A,< 1e-05,–,–

Variant,self-cleavage kobs at 640 uM GlcN6P (glucosamine-6-phosphate [1]) [s⁻¹],self-cleavage kobs at 2500 uM GlcN6P (glucosamine-6-phosphate [2]) [s⁻¹],self-cleavage kobs at 10000 uM GlcN6P (glucosamine-6-phosphate [3]) [s⁻¹]
C11U U31A C50G,8.34e-05 ± 2.1e-05,9.55e-05 ± 3.2e-05,–
C11U A15U U57G C58U C67U,0.00016 ± 4e-05,0.000131 ± 4.9e-05,–
C11G G41U C50U,< 1e-05,< 1e-05,–
A14G U45G C50G C68G,< 1e-05,–,–
A14G C50G G51C C61U U69A,0.000136 ± 6.5e-05,–,–
C11U C16U C71G,6.83e-05 ± 1.8e-05,0.000127 ± 3.7e-05,–
A14U A33G G38A,< 1e-05,< 1e-05,–
A14U U30G U69G C71G,0.000132 ± 4.4e-05,0.00026 ± 5.9e-05,–
A14G A42G G59C,< 1e-05,–,–
C11G U45G C71U,< 1e-05,< 1e-05,–
A15C G44C U56C,< 1e-05,–,–
A15C G37C C70U,< 1e-05,–,–
A15C A33C G59C,< 1e-05,< 1e-05,–
C11A G32C G41U A52U,< 1e-05,–,–
A12C C34A U69C,< 1e-05,–,–
C11G C58A C68A,0.000165 ± 6.6e-05,–,–
G13C C50A,< 1e-05,–,< 1e-05
G13C G37U G60U,< 1e-05,–,–
A12G C16A A52U U57G,< 1e-05,–,–
G13U C50A U69G,0.000105 ± 3.4e-05,5.37e-05 ± 1.8e-05,–
G13C U55A U69A,0.00022 ± 7e-05,–,–
C11U G38C G51U U65A,< 1e-05,–,–
